The values that follow come from patent US20240327505A1 (published 2024).

Positions count from the first letter of the chain named.

B1: AB-009281 (antibody, V domains shown)
VH: EVQLVETGGGLIQPGGSLRLSCAASGFTVSSNYMSWVRQAPGKGLEWVSVIYSGGSTYYADSVKGRFTISRDNSKNTLYLQMNSLRAEDTAVYYCARDLYYYGMDVWGQGTTVTVSS
VL: DIQLTQSPSFLSASVGDRVTITCRASQGISSYLAWYQQKPGKAPKLLIYAASTLQSGVPSRFSGSGSGTEFTLTISSLQPEDFATYYCQQLNSYPTFGQGTKVEIK
B2: AB-009661 (antibody, V domains shown)
VH: QVQLVESGGGVVQPGRSLRLSCAASGFTFSSYGMHWVRQAPGKGLEWVAVISYDGSNKYYADSVKGRFTISRDNSKNTLYLQMNSLRAEDTAVYYCAKDYGDYGGMDVWGQGTTVTVSS
VL: not shown
B3: AB-009615 (antibody, V domains shown)
VH: QVQLVESGGGVVQPGRSLRLSCAASGFTFSSYGMHWVRQAPGKGLEWVAVIWYDGSNKYYADSVKGRFTISRDNSKNTLYLQMNSLRAEDTAVYYCAKVGSPYCSGGSCYSGYFDYWGQGTLVTVSS
VL: not shown
B4: AB-009760 (antibody, V domains shown)
VH: EVQLVQSGAEVKKPGESLKISCKGSGYSFTSYWIGWVRQMPGKGLEWMGIIYPGDSDTRYSPSFQGQVTISADKSISTAYLQWSSLKASDTAMYYCARSRSSDYFDYWGQGTLVTVSS
VL: not shown
B5: AB-009346 (antibody, V domains shown)
VH: EVQLVESGGGVVRPGGSLRLSCAASGFTFDDYGMSWVRQAPGKGLEWVSGINWNGGSTGYADSVKGRFTISRDNAKNSLYLQMNSLRAEDTALYYCARWPLLGISGYYHYYMDVWGKGTTVTVSS
VL: QSALTQPRSVSGSPGQSVTISCTGTSSDVGGYNYVSWYQQHPGKAPKLMIYDVSKRPSGVPDRFSGSKSGNTASLTISGLQAEDEADYYCCSYAGSYTLLFGGGTKLIVL
B6: AB-009769 (antibody, V domains shown)
VH: EVQLVESGGGLVQPGGSLRLSCAASGFTFSSYWMSWVRQAPGKGLEWVANIKQDGSEKYYVDSVKGRFTISRDNAKNSLYLQMNSLRAEDTAVYYCARSPEVLWFGDPVLDNWFDPWGQGTLVTVSS
VL: SYELTQPPSVSVSPGQTARITCSGDALPKQYAYWYQQKPGQAPVLVIYKDSERPSGIPERFSGSSSGTTVTLTISGVQAEDEADYYCQSADSSGTYPVVFGGGTKLTVL
B7: AB-009614 (antibody, V domains shown)
VH: QVQLVESGGGVVQPGRSLRLSCAASGFTFSSYGMHWVRQAPGKGLEWVAVISYDGSNKYYADSVKGRFTISRDNSKNTLYLQMNSLRAEDTAVYYCAKDQKYYDILTGYYRSTYYYYYYGMDVWGQGTTVTVSS
VL: not shown
B8: AB-009734 (antibody, V domains shown)
VH: QVHLVQSGAEVKTPGASVRVSCKASGYTFTSHYMHWVRQAPGQGLEWMGLINPSGSGTAYPQHFQGRVTMTRDTSTTTDYMDLSSLRSEDTAMYFCARMERSGAFDLWGQGTMVTVSS
VL: EIVLTQSPGTLSLSPGERATLSCRASQTISSRYLAWYYQKPGQAPRLLIQGSSIRATGIPDRFSGSGSGTDFTLTISRLEPEDFAVYYCQHYGSSPPMYTFGQGTKLEIK
B9: AB-009112 (antibody, V domains shown)
VH: QVQLVESGGGVVQPGRSLRLSCAASGFTFSSYAMHWVRQAPGKGLEWVAVISYDGSNKYYADSVKGRFTISRDNSKNTLYLQMNSLRAEDTAVYYCASSLVGATKSYYYYYYGMDVWGQGTTVTVSS
VL: SYELTQPLSVSVALGQTARITCGGNNIGSKNVHWYQQKPGQAPVLVIYRDSNRPSGIPERFSGSNSGNTATLTISRAQAGDEADYYCQVWDSSSVVFGGGTKLTVL
B10: AB-009213 (antibody, V domains shown)
VH: EVQLVESGGGLVKPGGSLRLSCAASGFTFSSYSMNWVRQAPGKGLEWVSSISSSSSYIYYADSVKGRFTISRDNAKNSLYLQMNSLRAEDTAVYYCARDKLREDGDYDDAFDIWGQGTMVTVSS
VL: not shown
B11: AB-009095 (antibody, V domains shown)
VH: EVQLVQSGAEVKKPGESLIISCTGSGYTFATFWITWVRQMPGKGLEWLGRIDPSDSYTNYNPSFQGHVTVSVDRSINTAYLELTSLKASDTAIYYCARQMYNTGWPIPNYSDYWGQGTLVTVSS
VL: QSALTQPPSASGSPGQSVTISCAGASTDVGVYNFVSWYQQHPGKAPKLIIFDVNKRPSGVPDRFSGSKSGNTASLTVSGLQAEDEADYYCSSYEVGNNFVFGTGTKVTVL
B12: AB-009613 (antibody, V domains shown)
VH: B1 VH with T7S, L99Y, Y100G, Y101D, Y102F, G103Y, M104F, V106Y, T112L
VL: not shown
B13: AB-009271 (antibody, V domains shown)
VH: B1 VH with T7S, T28I, L99Y, Y100G, Y101D, Y102F, G103Y, M104F, V106Y, T112L
VL: EIVMTQSPATLSVSPGERATLSCRASQSVSSNLAWYQQKPGQAPRLLIYGASTRATGIPARFSGSGSGTEFTLTISSLQSEDFAVYYCQQYYNWPRTFGQGTKVEIK
B14: AB-009610 (antibody, V domains shown)
VH: QVQLVQSGAEVKKPGSSVKVSCKASGGTFSNYAISWVRQAPGQGLEWMGRIIPILGIANYAQKFQGRVTITADKSTSTAYMELSSLRSEDTAVYYCATTPYYYDSSGYYLDYWGQGTLVTVSS
VL: not shown
B15: AB-010020 (antibody, V domains shown)
VH: QMQLVQSGPEVKKPGTSVKVSCKASGFTFTSSAVQWVRQARGQRLEWIGWIVVGSGNTNYAQKFQERVTITRDMSTSTAYMELSSLRSEDTAVYYCAAPACSSTSCYDGFDIWGQGTMVTVSS
VL: not shown
B16: AB-010021 (antibody, V domains shown)
VH: B15 VH with P99V, A100Y, S103G, T104G, Y107L, G109A
VL: not shown
B17: AB-009710 (antibody, V domains shown)
VH: LVQLIQSGAEVVKPGSSVKVSCTASGGSYSSYTLSWVRQAPGQGVEWLGRISPVLNTTYYAQKLEGRVTMTADESTSTVYMQLSSLRSEDTAVYYCARLASMNGVDIWGQGTSVTVSS
VL: EIVLTQSPGTLSLSPGERATLSCRASQSVYGSYLAWYQQKPGQAPRLLIYGGSSRATGIPDRFSGSGSGTDFTLTISRLEPEDFAVYYCHQYGTSRYSFGQGTKLDIK
B18: AB-009283 (antibody, V domains shown)
VH: EVQLVESGGGLIQPGGSLRLSCAASGFTVSSNYMSWVRQAPGKGLEWVSVIYSGGSTYYADSVKGRFTISRDNSKNTLYLQMNSLRAEDTAVYYCATSSFDYYYYFMDVWGKGTTVTVSS
VL: SYELTQPPSVSVSPGQTASITCSGDKLGDKYACWYHQKPGQSPVLVIYQDTKRPSGIPERFSASNSGNTATLTISGTQALDEADYYCQAWDSSIVVFGGGTKLTVL

The Kd is the equilibrium constant for the complex coming apart. As a reminder, the koff is the first-order rate constant of dissociation. Lower therefore signals a long-lived complex. In general, kon refers to the rate constant with which the complex forms. A high value points to faster complex formation.

The target of the first test is SARS-CoV-2 Wuhan-1 full-length Spike protein on pseudovirus (SARS-CoV-2, UniProt P0DTC2 14-1273). The test can be described thus: cell-based or functional assay.
Regarding B1, the “Pseudovirus Neturalization” value worked out at 0.215 µg/mL.

As to B2, the “Pseudovirus Neturalization” value was greater than 50 µg/mL.

On to B3, for which the “Pseudovirus Neturalization” value stood at 27.7 µg/mL.

B4: the “Pseudovirus Neturalization” value is 4.1 µg/mL.

With B5, the “Pseudovirus Neturalization” value was 0.774 µg/mL.

For B6, the “Pseudovirus Neturalization” value is greater than 50 µg/mL.

In the case of B7, the “Pseudovirus Neturalization” value is 0.142 µg/mL.

Consider B8, for which the “Pseudovirus Neturalization” value was 42.4 µg/mL.

A further test addresses SARS-CoV-1 spike protein on pseudovirus (SARS-CoV-1, UniProt P59594 14-1255). The test can be described thus: cell-based or functional assay.
In the case of B1, the “Pseudovirus Neturalization” value is greater than 50 µg/mL.

On to B2, for which the “Pseudovirus Neturalization” value is greater than 50 µg/mL.

Turning to B3, the “Pseudovirus Neturalization” value was greater than 50 µg/mL.

Turning to B4, the “Pseudovirus Neturalization” value is greater than 50 µg/mL.

Take B5: the “Pseudovirus Neturalization” value was greater than 50 µg/mL.

In the case of B6, the “Pseudovirus Neturalization” value is greater than 50 µg/mL.

With B7, the “Pseudovirus Neturalization” value was greater than 50 µg/mL.

As to B8, the “Pseudovirus Neturalization” value was greater than 50 µg/mL.

In the next test the target is SARS-CoV-2 spike protein on fully infectious (replication-competent) SARS-CoV-2 virus (SARS-CoV-2, UniProt P0DTC2 14-1273). The test can be described thus: cell-based or functional assay.
Regarding B1, the “Neutralization (Infectious virus; (µg/mL))” value (“Neutralization” below) came to 33.7 µg/mL.

Take B2: the “Neutralization” value was 20.6 µg/mL.

Consider B3, for which the “Neutralization” value worked out at 12.3 µg/mL.

With B4, the “Neutralization” value was 32.8 µg/mL.

On to B5, for which the “Neutralization” value was 2.14 µg/mL.

As to B6, the “Neutralization” value was 24.5 µg/mL.

On to B7, for which the “Neutralization” value is 0.075 µg/mL.

With B8, the “Neutralization” value was found to be 21.4 µg/mL.

Another test has as its target SARS-CoV-2 Nucleocapsid (N) protein (SARS-CoV-2, UniProt P0DTC9 1-419).
Assay: not given
In turn, B9 returned a Kd of 32.7 nM.

As to B10, the Kd was found to be 10 nM, the koff worked out at 0.00112 s⁻¹ and the kon turned out to be 112000 M⁻¹ s⁻¹.

Molecule B11 gave a Kd of 0.833 nM, an off-rate (koff) of 5.93e-05 s⁻¹ and an association rate constant (kon) of 71100 M⁻¹ s⁻¹.

The target of a further test is SARS-CoV-2 spike S1 protein (SARS-CoV-2, UniProt P0DTC2 16-685).
Assay: not given
In turn, B12 had a Kd of 16.1 nM, a koff of 0.00102 s⁻¹ and a kon of 63600 M⁻¹ s⁻¹.

With B13, the affinity, expressed as Kd, was 55.4 nM; the koff stood at 0.0042 s⁻¹; the kon was 75900 M⁻¹ s⁻¹.

Turning to B14, the Kd turned out to be 111 nM, the dissociation rate constant (koff) worked out at 0.00456 s⁻¹ and the kon is 41100 M⁻¹ s⁻¹.

Regarding B15, the Kd came out at 13.5 nM, the koff is 0.0069 s⁻¹ and the kon was determined as 512000 M⁻¹ s⁻¹.

For the molecule B16, the Kd was 12.5 nM, the koff was found to be 0.00214 s⁻¹ and the kon came to 171000 M⁻¹ s⁻¹.

In the next test the target is SARS-CoV-2 spike receptor-binding domain (RBD) (SARS-CoV-2, UniProt P0DTC2 319-541).
Assay: not given
For the molecule B12, the Kd amounted to 4.26 nM, the koff stood at 0.000313 s⁻¹ and the kon is 73400 M⁻¹ s⁻¹.

As to B13, the Kd came out at 15.1 nM, the koff was 0.00141 s⁻¹ and the association rate constant (kon) was 93200 M⁻¹ s⁻¹.

B14 came in with a Kd of 21.6 nM, a koff of 0.00107 s⁻¹ and a kon of 49500 M⁻¹ s⁻¹.

B15: the equilibrium dissociation constant (Kd) was 2.16 nM, the dissociation rate constant (koff) was determined as 0.00212 s⁻¹ and the kon is 980000 M⁻¹ s⁻¹.

The molecule B16 came in with a Kd of 12.4 nM, a koff of 0.00275 s⁻¹ and a kon of 221000 M⁻¹ s⁻¹.

The target of the next test is SARS-CoV-2 S2 protein (SARS-CoV-2, UniProt P0DTC2 686-1213).
Assay: not given
As for B17, binding was characterised by a dissociation constant (Kd) of 46.8 nM, the koff worked out at 0.000591 s⁻¹ and the kon came out at 12600 M⁻¹ s⁻¹.

B18 gave a Kd of 22.7 nM, a koff of 0.000319 s⁻¹ and a kon of 14100 M⁻¹ s⁻¹.

A further test concerns the target SARS-CoV-2 spike S2 protein (SARS-CoV-2, UniProt P0DTC2 686-1213).
Assay: not given
In turn, B11 yielded a Kd of 0.176 nM, a koff of 2.15e-07 s⁻¹ and a kon of 1220 M⁻¹ s⁻¹.
